Data on 125 sequences can be found in the supplement of paper PMC9112550, “Optimization of the antimicrobial peptide Bac7 by deep mutational scanning” (BMC Biology, 2022).

This series deals with Escherichia coli TOP10. Description: shrunken log2 fold change of peptide-encoding DNA abundance (4.5 h post-induction vs induction); higher = less antimicrobial activity (less host growth inhibition). To be noted: time post-induction: 4.5 h; library: site-saturation at positions 5, 18, 19, 20.
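Note: peptides expressed intracellularly from a pBAD plasmid library in pooled LB shake-flask culture, induced with 0.3% L-arabinose, DNA abundance read by NGS, three biological replicates, DESeq2 with apeglm shrinkage.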

For the sequence RRIRTRPPRLPRPRPRPEGGPRP, the “shrunken log2 fold change” value stood at 0.203. On to RRIRVRPPRLPRPRPRPMRCPRP, for which the “shrunken log2 fold change” value worked out at 0.204. Take RRIRPRPPRLPRPRPRPGLIPRP: the “shrunken log2 fold change” value was -0.0104. As for RRIRERPPRLPRPRPRPLCTPRP, the figure is -0.364; as for RRIRGRPPRLPRPRPRPREDPRP, 1.47; as for RRIRCRPPRLPRPRPRPETWPRP, 0.203. Turning to RRIRFRPPRLPRPRPRPMMNPRP, the “shrunken log2 fold change” value was -0.77. As for RRIRERPPRLPRPRPRPWVHPRP, the figure is -0.0432.

Take RRIRCRPPRLPRPRPRPNFKPRP: the “shrunken log2 fold change” value is -0.21. For RRIRIRPPRLPRPRPRPLNLPRP, the “shrunken log2 fold change” value was -0.597. With RRIRTRPPRLPRPRPRPIVIPRP, the “shrunken log2 fold change” value is -0.054.

For RRIRGRPPRLPRPRPRPGQNPRP, the “shrunken log2 fold change” value was 0.0139.

Take RRIRDRPPRLPRPRPRPQMVPRP: the “shrunken log2 fold change” value is -0.0637. Take RRIRFRPPRLPRPRPRPQGCPRP: the “shrunken log2 fold change” value is -0.13. As for RRIRNRPPRLPRPRPRPWFHPRP, the figure is -0.179; as for RRIRFRPPRLPRPRPRPLLMPRP, -0.564; as for RRIRRRPPRLPRPRPRPSVNPRP, -0.308. On to RRIRQRPPRLPRPRPRPPLYPRP, for which the “shrunken log2 fold change” value came out at 0.233. For RRIRPRPPRLPRPRPRPELFPRP, the “shrunken log2 fold change” value was 0.25. Regarding RRIRTRPPRLPRPRPRPMQDPRP, the “shrunken log2 fold change” value was found to be 0.118. As for RRIRLRPPRLPRPRPRPMSWPRP, the figure is 0.0708; as for RRIRQRPPRLPRPRPRPWNYPRP, -0.201; as for RRIRMRPPRLPRPRPRPKWKPRP, 0.195. For the sequence RRIRHRPPRLPRPRPRPTSWPRP, the “shrunken log2 fold change” value worked out at 0.091. As for RRIRTRPPRLPRPRPRPLMFPRP, the figure is -0.516.

As for RRIRERPPRLPRPRPRPRDTPRP, the “shrunken log2 fold change” value was -0.0322. Take RRIRYRPPRLPRPRPRPCECPRP: the “shrunken log2 fold change” value was -0.0717.

Regarding RRIRNRPPRLPRPRPRPDCSPRP, the “shrunken log2 fold change” value is -0.224.

Regarding RRIRARPPRLPRPRPRPMAFPRP, the “shrunken log2 fold change” value stood at 0.0104. Regarding RRIRRRPPRLPRPRPRPYAFPRP, the “shrunken log2 fold change” value is 0.0067. As for RRIRTRPPRLPRPRPRPRSRPRP, the figure is 0.143; as for RRIRCRPPRLPRPRPRPSTYPRP, -0.768. For RRIRGRPPRLPRPRPRPYGLPRP, the “shrunken log2 fold change” value came out at 0.0992.

With RRIRCRPPRLPRPRPRPVERPRP, the “shrunken log2 fold change” value worked out at 0.0133. As for RRIRNRPPRLPRPRPRPRFWPRP, the figure is 0.395; as for RRIRERPPRLPRPRPRPKAVPRP, 0.0311. As for RRIRWRPPRLPRPRPRPACPPRP, the figure is 0.105.

RRIRSRPPRLPRPRPRPDAQPRP: the “shrunken log2 fold change” value was 0.406. Consider RRIRFRPPRLPRPRPRPPTFPRP, for which the “shrunken log2 fold change” value is -0.0402. As for RRIRLRPPRLPRPRPRPFRQPRP, the figure is 0.0662; as for RRIRIRPPRLPRPRPRPKMNPRP, -0.954; as for RRIRNRPPRLPRPRPRPNYLPRP, -0.354. As for RRIRKRPPRLPRPRPRPESKPRP, the figure is 0.727.

Consider RRIRKRPPRLPRPRPRPFCNPRP, for which the “shrunken log2 fold change” value is 0.128. Consider RRIRARPPRLPRPRPRPVRAPRP, for which the “shrunken log2 fold change” value was 0.924. For the sequence RRIRRRPPRLPRPRPRPCCCPRP, the “shrunken log2 fold change” value was 0.0202.

With RRIRERPPRLPRPRPRPASEPRP, the “shrunken log2 fold change” value was -0.123. As to RRIRWRPPRLPRPRPRPFWHPRP, the “shrunken log2 fold change” value is -0.0195. As for RRIRPRPPRLPRPRPRPRKPPRP, the figure is -0.0217; as for RRIRGRPPRLPRPRPRPQHVPRP, -0.12. Consider RRIRCRPPRLPRPRPRPCPQPRP, for which the “shrunken log2 fold change” value was -0.184. For RRIRFRPPRLPRPRPRPPEWPRP, the “shrunken log2 fold change” value came to 0.139. Take RRIRKRPPRLPRPRPRPKPIPRP: the “shrunken log2 fold change” value is 0.742. Turning to RRIRWRPPRLPRPRPRPIAPPRP, the “shrunken log2 fold change” value was 0.45.

For the sequence RRIRMRPPRLPRPRPRPKRDPRP, the “shrunken log2 fold change” value came to 1.15.

As to RRIRCRPPRLPRPRPRPGDGPRP, the “shrunken log2 fold change” value was found to be 0.646. As to RRIRLRPPRLPRPRPRPTQDPRP, the “shrunken log2 fold change” value amounted to 0.488. As for RRIRQRPPRLPRPRPRPTTQPRP, the figure is 0.0143; as for RRIRVRPPRLPRPRPRPMNTPRP, -0.312; as for RRIRARPPRLPRPRPRPQLAPRP, 0.766.

RRIRTRPPRLPRPRPRPYCQPRP: the “shrunken log2 fold change” value was -0.804.

In the case of RRIRYRPPRLPRPRPRPAAVPRP, the “shrunken log2 fold change” value came out at 0.0751. As for RRIRSRPPRLPRPRPRPDWLPRP, the figure is 0.153; as for RRIRARPPRLPRPRPRPRVTPRP, 0.462; as for RRIRGRPPRLPRPRPRPPTYPRP, 0.206.

As to RRIRFRPPRLPRPRPRPNYWPRP, the “shrunken log2 fold change” value is -0.221. As for RRIRCRPPRLPRPRPRPYTQPRP, the figure is -1.31; as for RRIRTRPPRLPRPRPRPAKTPRP, 0.117. In the case of RRIRNRPPRLPRPRPRPHEQPRP, the “shrunken log2 fold change” value was -0.066. As for RRIRPRPPRLPRPRPRPQYNPRP, the figure is -0.742; as for RRIRERPPRLPRPRPRPSDLPRP, -0.151; as for RRIRHRPPRLPRPRPRPFPRPRP, 0.0685. RRIRVRPPRLPRPRPRPAQRPRP: the “shrunken log2 fold change” value stood at 0.184.

Regarding RRIRGRPPRLPRPRPRPRTMPRP, the “shrunken log2 fold change” value is 0.539. As for RRIRIRPPRLPRPRPRPKIAPRP, the figure is 0.00729; as for RRIRDRPPRLPRPRPRPNDCPRP, -0.0197; as for RRIRERPPRLPRPRPRPPLGPRP, 0.0751.

For RRIRTRPPRLPRPRPRPMLCPRP, the “shrunken log2 fold change” value was -0.00838. For RRIRRRPPRLPRPRPRPCQEPRP, the “shrunken log2 fold change” value is 0.139. Consider RRIRLRPPRLPRPRPRPVRGPRP, for which the “shrunken log2 fold change” value is 0.682. As for RRIRVRPPRLPRPRPRPGNRPRP, the figure is -0.0858. As for RRIRVRPPRLPRPRPRPHEAPRP, the figure is 0.145; as for RRIRWRPPRLPRPRPRPKPGPRP, 0.34. As for RRIRFRPPRLPRPRPRPANEPRP, the figure is 0.0451. Take RRIRQRPPRLPRPRPRPSDIPRP: the “shrunken log2 fold change” value is -0.0397.

In the case of RRIRRRPPRLPRPRPRPFKMPRP, the “shrunken log2 fold change” value is -0.124. For RRIRGRPPRLPRPRPRPDKKPRP, the “shrunken log2 fold change” value is 0.878. As to RRIRLRPPRLPRPRPRPPVTPRP, the “shrunken log2 fold change” value was 0.353. As for RRIRDRPPRLPRPRPRPSAFPRP, the figure is 0.124; as for RRIRCRPPRLPRPRPRPDFQPRP, -0.294.

As for RRIRERPPRLPRPRPRPNMKPRP, the “shrunken log2 fold change” value was -0.6. RRIRLRPPRLPRPRPRPSNSPRP: the “shrunken log2 fold change” value is -0.564. As for RRIRKRPPRLPRPRPRPGWVPRP, the figure is 0.573; as for RRIRPRPPRLPRPRPRPFAHPRP, -0.124; as for RRIRYRPPRLPRPRPRPWFFPRP, -0.841.

Consider RRIRPRPPRLPRPRPRPSFVPRP, for which the “shrunken log2 fold change” value is -0.436.

With RRIRGRPPRLPRPRPRPLIPPRP, the “shrunken log2 fold change” value was -0.0737. As for RRIRRRPPRLPRPRPRPPIWPRP, the figure is 2.59; as for RRIRYRPPRLPRPRPRPCATPRP, 0.0757; as for RRIRPRPPRLPRPRPRPKNAPRP, -0.0349. In the case of RRIRHRPPRLPRPRPRPACHPRP, the “shrunken log2 fold change” value is -0.2.

As to RRIRGRPPRLPRPRPRPYYWPRP, the “shrunken log2 fold change” value is -0.25. Turning to RRIRVRPPRLPRPRPRPKSMPRP, the “shrunken log2 fold change” value was -0.362. For the sequence RRIRFRPPRLPRPRPRPAWWPRP, the “shrunken log2 fold change” value was determined as 0.273.

With RRIRNRPPRLPRPRPRPYTLPRP, the “shrunken log2 fold change” value was -0.288.

For the sequence RRIRMRPPRLPRPRPRPGLKPRP, the “shrunken log2 fold change” value came to 0.363. As for RRIRYRPPRLPRPRPRPIIFPRP, the figure is 0.0131; as for RRIRLRPPRLPRPRPRPNRGPRP, -0.00212. As for RRIRDRPPRLPRPRPRPTLIPRP, the figure is 0.0896. For RRIRGRPPRLPRPRPRPTNGPRP, the “shrunken log2 fold change” value was 0.254. As for RRIRVRPPRLPRPRPRPKGEPRP, the figure is -0.0112; as for RRIRKRPPRLPRPRPRPAHRPRP, 0.562. As for RRIRSRPPRLPRPRPRPEQKPRP, the figure is 0.0179. As for RRIRQRPPRLPRPRPRPEAFPRP, the figure is 0.127; as for RRIRCRPPRLPRPRPRPNIYPRP, -0.588; as for RRIRQRPPRLPRPRPRPIGHPRP, -0.281. With RRIRYRPPRLPRPRPRPEASPRP, the “shrunken log2 fold change” value is -0.0105. As for RRIRFRPPRLPRPRPRPEHKPRP, the figure is -0.0193. As for RRIRIRPPRLPRPRPRPNNCPRP, the figure is -0.0753.

For RRIRYRPPRLPRPRPRPTTCPRP, the “shrunken log2 fold change” value is -0.923. Consider RRIRYRPPRLPRPRPRPPLVPRP, for which the “shrunken log2 fold change” value stood at 0.174. Regarding RRIRHRPPRLPRPRPRPVSGPRP, the “shrunken log2 fold change” value is -0.188. On to RRIRQRPPRLPRPRPRPMPAPRP, for which the “shrunken log2 fold change” value worked out at 0.178. Consider RRIRNRPPRLPRPRPRPYKSPRP, for which the “shrunken log2 fold change” value is -0.00822.

Turning to RRIRGRPPRLPRPRPRPIFNPRP, the “shrunken log2 fold change” value turned out to be 0.051.
